From US20120237528A1 (Janssen / Centocor, published 2012)

The binders below were run against T1, recombinant extracellular domain (ECD) of human TF, amino acid 1-219 of the mature chain, C-terminal His6-tag (human, UniProt P13726 33-251) (assay: Biacore).
T1 construct: expressed in a mammalian system; used for ELISA and Biacore; biotinylated by NHS-ester for the Fab ELISA; also called His6-TF-ECD1-219; HumanTF1-219

Row | Binder | Kd
1 | M1648 (antibody, V domains shown, complete MAb; FR4 is its own entry; also called H171/L327) VH: EVQLVQSGAEVKKPGESLRISCKGSGYTFAPYWIEWVRQMPGKGLEWMGDILPGTGFTTYSPSFQGHVTISADKSISTAYLQWSSLKASDTAMYYCARSGYYGNSGFAYWGQGTLVTVSS VL: DIVMTQTPLSLPVTPGEPASISCKSSQSLLPSWNQSNYLTWYLQKPGQSPQLLIYWASTRESGVPDRFSGSGSGTDFTLKISRVEAEDVGVYYCQNDFTYPLTFGQGTKLEIK | 0.73 nM
2 | M1650 (antibody, V domains shown, complete MAb; FR4 is its own entry; also called H171/L369) VH: EVQLVQSGAEVKKPGESLRISCKGSGYTFAPYWIEWVRQMPGKGLEWMGDILPGTGFTTYSPSFQGHVTISADKSISTAYLQWSSLKASDTAMYYCARSGYYGNSGFAYWGQGTLVTVSS VL: DIVMTQTPLSLPVTPGEPASISCKSSQSLLTSYNQRNYLTWYLQKPGQSPQLLIYWASTRESGVPDRFSGSGSGTDFTLKISRVEAEDVGVYYCQNDLTYPLTFGQGTKLEIK | 0.19 nM

What follows are binders tested against Innovin, lyophilized recombinant human tissue factor combined with phospholipids (human, UniProt P13726 33-295, limits assumed) (assay: cell-based or functional assay).

Row | Binder | T½ Max (seconds), coagulation of human plasma
3 | M1648 (antibody, V domains shown, complete MAb; FR4 is its own entry; also called H171/L327) VH: EVQLVQSGAEVKKPGESLRISCKGSGYTFAPYWIEWVRQMPGKGLEWMGDILPGTGFTTYSPSFQGHVTISADKSISTAYLQWSSLKASDTAMYYCARSGYYGNSGFAYWGQGTLVTVSS VL: DIVMTQTPLSLPVTPGEPASISCKSSQSLLPSWNQSNYLTWYLQKPGQSPQLLIYWASTRESGVPDRFSGSGSGTDFTLKISRVEAEDVGVYYCQNDFTYPLTFGQGTKLEIK | 161 s
4 | M1650 (antibody, V domains shown, complete MAb; FR4 is its own entry; also called H171/L369) VH: EVQLVQSGAEVKKPGESLRISCKGSGYTFAPYWIEWVRQMPGKGLEWMGDILPGTGFTTYSPSFQGHVTISADKSISTAYLQWSSLKASDTAMYYCARSGYYGNSGFAYWGQGTLVTVSS VL: DIVMTQTPLSLPVTPGEPASISCKSSQSLLTSYNQRNYLTWYLQKPGQSPQLLIYWASTRESGVPDRFSGSGSGTDFTLKISRVEAEDVGVYYCQNDLTYPLTFGQGTKLEIK | 150 s

Each binder was assayed against T1, recombinant extracellular domain (ECD) … (assay: direct ELISA, 50 ng/ml).

Row | Binder | binding result
5 | M63 (antibody, V domains shown, complete MAb; FR4 is its own entry; also called H22/L7) VH: EVQLVQSGAEVKKPGESLRISCKGSGYTFITYWIEWVRQMPGKGLEWMGDILPGSGSTNYSPSFQGHVTISADKSISTAYLQWSSLKASDTAMYYCARSGYYGNSGFAYWGQGTLVTVSS VL: DIVMTQTPLSSPVTLGQPASISCKSSQSLLSSGNQKNYLTWLQQRPGQPPRLLIYWASTRESGVPDRFSGSGAGTDFTLKISRVEAEDVGVYYCQNDYTYPLTFGQGTKLEIK | binds
6 | M23 (antibody, V domains shown, complete MAb; FR4 is its own entry; also called H17/L2) VH: QVQLVQSGAEVKKPGASVKVSCKASGYTFITYWIEWVRQAPGQRLEWMGDILPGSGSTNYNENFKGRVTITRDTSASTAYMELSSLRSEDTAVYYCARSGYYGNSGFAYWGQGTLVTVSS VL: DIVMTQSPDSLAVSLGERATINCKSSQSLLSSGNQKNYLTWYQQKPGQPPKLLIYWASTRESGVPDRFSGSGSGTDFTLTISSLQAEDVAVYYCQNDYTYPLTFGQGTKLEIK | binds
7 | M44 (antibody, V domains shown, complete MAb; FR4 is its own entry; also called H20/L2) VH: QVQLVQSGAEVKKPGASVKVSCKASGYTFITYWIEWVRQAPGQGLEWMGDILPGSGSTNYNENFKGRVTMTTDTSTSTAYMELRSLRSDDTAVYYCARSGYYGNSGFAYWGQGTLVTVSS VL: DIVMTQSPDSLAVSLGERATINCKSSQSLLSSGNQKNYLTWYQQKPGQPPKLLIYWASTRESGVPDRFSGSGSGTDFTLTISSLQAEDVAVYYCQNDYTYPLTFGQGTKLEIK | binds
8 | M65 (antibody, V domains shown, complete MAb; FR4 is its own entry; also called H23/L2) VH: QVQLVQSGAEVKKPGSSVKVSCKASGYTFITYWIEWVRQAPGQGLEWMGDILPGSGSTNYAQKFQGRVTITADESTSTAYMELSSLRSEDTAVYYCARSGYYGNSGFAYWGQGTLVTVSS VL: DIVMTQSPDSLAVSLGERATINCKSSQSLLSSGNQKNYLTWYQQKPGQPPKLLIYWASTRESGVPDRFSGSGSGTDFTLTISSLQAEDVAVYYCQNDYTYPLTFGQGTKLEIK | binds
9 | M38 (antibody, V domains shown, complete MAb; FR4 is its own entry; also called H19/L3) VH: QVQLVQSGAEVKKPGSSVKVSCKASGYTFITYWIEWVRQAPGQGLEWMGDILPGSGSTNYNENFKGRVTITADESTSTAYMELSSLRSEDTAVYYCARSGYYGNSGFAYWGQGTLVTVSS VL: DIVMTQTPLSLPVTPGEPASISCKSSQSLLSSGNQKNYLTWYLQKPGQSPQLLIYWASTRESGVPDRFSGSGSGTDFTLKISRVEAEDVGVYYCQNDYTYPLTFGQGTKLEIK | binds
10 | M17 (antibody, V domains shown, complete MAb; FR4 is its own entry; also called H16/L3) VH: QVQLVQSGAEVKKPGASVKVSCKASGYTFITYWIEWVRQAPGQGLEWMGDILPGSGSTNYNENFKGRVTMTRDTSTSTVYMELSSLRSEDTAVYYCARSGYYGNSGFAYWGQGTLVTVSS VL: DIVMTQTPLSLPVTPGEPASISCKSSQSLLSSGNQKNYLTWYLQKPGQSPQLLIYWASTRESGVPDRFSGSGSGTDFTLKISRVEAEDVGVYYCQNDYTYPLTFGQGTKLEIK | binds
11 | M18 (antibody, V domains shown, complete MAb; FR4 is its own entry; also called H16/L4) VH: QVQLVQSGAEVKKPGASVKVSCKASGYTFITYWIEWVRQAPGQGLEWMGDILPGSGSTNYNENFKGRVTMTRDTSTSTVYMELSSLRSEDTAVYYCARSGYYGNSGFAYWGQGTLVTVSS VL: DIVMTQSPLSLPVTPGEPASISCKSSQSLLSSGNQKNYLTWYLQKPGQSPQLLIYWASTRESGVPDRFSGSGSGTDFTLKISRVEAEDVGVYYCQNDYTYPLTFGQGTKLEIK | binds
12 | M24 (antibody, V domains shown, complete MAb; FR4 is its own entry; also called H17/L3) VH: QVQLVQSGAEVKKPGASVKVSCKASGYTFITYWIEWVRQAPGQRLEWMGDILPGSGSTNYNENFKGRVTITRDTSASTAYMELSSLRSEDTAVYYCARSGYYGNSGFAYWGQGTLVTVSS VL: DIVMTQTPLSLPVTPGEPASISCKSSQSLLSSGNQKNYLTWYLQKPGQSPQLLIYWASTRESGVPDRFSGSGSGTDFTLKISRVEAEDVGVYYCQNDYTYPLTFGQGTKLEIK | binds
13 | M25 (antibody, V domains shown, complete MAb; FR4 is its own entry; also called H17/L4) VH: QVQLVQSGAEVKKPGASVKVSCKASGYTFITYWIEWVRQAPGQRLEWMGDILPGSGSTNYNENFKGRVTITRDTSASTAYMELSSLRSEDTAVYYCARSGYYGNSGFAYWGQGTLVTVSS VL: DIVMTQSPLSLPVTPGEPASISCKSSQSLLSSGNQKNYLTWYLQKPGQSPQLLIYWASTRESGVPDRFSGSGSGTDFTLKISRVEAEDVGVYYCQNDYTYPLTFGQGTKLEIK | binds
14 | M39 (antibody, V domains shown, complete MAb; FR4 is its own entry; also called H19/L4) VH: QVQLVQSGAEVKKPGSSVKVSCKASGYTFITYWIEWVRQAPGQGLEWMGDILPGSGSTNYNENFKGRVTITADESTSTAYMELSSLRSEDTAVYYCARSGYYGNSGFAYWGQGTLVTVSS VL: DIVMTQSPLSLPVTPGEPASISCKSSQSLLSSGNQKNYLTWYLQKPGQSPQLLIYWASTRESGVPDRFSGSGSGTDFTLKISRVEAEDVGVYYCQNDYTYPLTFGQGTKLEIK | binds
15 | M40 (antibody, V domains shown, complete MAb; FR4 is its own entry; also called H19/L5) VH: QVQLVQSGAEVKKPGSSVKVSCKASGYTFITYWIEWVRQAPGQGLEWMGDILPGSGSTNYNENFKGRVTITADESTSTAYMELSSLRSEDTAVYYCARSGYYGNSGFAYWGQGTLVTVSS VL: DIVMTQTPLSLSVTPGQPASISCKSSQSLLSSGNQKNYLTWYLQKPGQPPQLLIYWASTRESGVPDRFSGSGSGTDFTLKISRVEAEDVGVYYCQNDYTYPLTFGQGTKLEIK | binds
16 | M47 (antibody, V domains shown, complete MAb; FR4 is its own entry; also called H20/L5) VH: QVQLVQSGAEVKKPGASVKVSCKASGYTFITYWIEWVRQAPGQGLEWMGDILPGSGSTNYNENFKGRVTMTTDTSTSTAYMELRSLRSDDTAVYYCARSGYYGNSGFAYWGQGTLVTVSS VL: DIVMTQTPLSLSVTPGQPASISCKSSQSLLSSGNQKNYLTWYLQKPGQPPQLLIYWASTRESGVPDRFSGSGSGTDFTLKISRVEAEDVGVYYCQNDYTYPLTFGQGTKLEIK | binds
17 | M66 (antibody, V domains shown, complete MAb; FR4 is its own entry; also called H23/L3) VH: QVQLVQSGAEVKKPGSSVKVSCKASGYTFITYWIEWVRQAPGQGLEWMGDILPGSGSTNYAQKFQGRVTITADESTSTAYMELSSLRSEDTAVYYCARSGYYGNSGFAYWGQGTLVTVSS VL: DIVMTQTPLSLPVTPGEPASISCKSSQSLLSSGNQKNYLTWYLQKPGQSPQLLIYWASTRESGVPDRFSGSGSGTDFTLKISRVEAEDVGVYYCQNDYTYPLTFGQGTKLEIK | binds
